Reference: patent US20220025055A1 (Boehringer Ingelheim, published 2022)
Residue numbers refer to the chain shown, from its start. In names and notes the source's numbering stands. Read-outs that look alike come from different tables or passages of the source.

B1: NB1063 (antibody, V domains shown)
VH: EVQLLESGGGLVQPGGSLRLSCAPSGFTFSNYGMAWVRQAPGKGLEWVSSIHSGGGDTYYRDSVKGRFTISRDNSKNTLYLQMNSLRAEDTAVYYCARGRTPTGYYFDHWGQGTMVTVSS
VL: DIQMTQSPSSLSASVGDRVTITCRASEGIHNGLAWYQQKPGKVPKLLIYNANSLHSGVPSRFSGSGSGTDFTLTISSLQPEDVATYFCQQYYDYPLTFGQGTKLEIK
B2: Humanized VH5 x Humanized VL2 (antibody, V domains shown)
VH: B1 VH with L5V, G10V, L11V, R61A, T78S, A88T, V93L
VL: B1 VL with D1A, V43A, V83F, F87Y
B3: Humanized VH5 x Humanized VL3 (antibody, V domains shown)
VH: B1 VH with L5V, G10V, L11V, R61A, T78S, A88T, V93L
VL: B1 VL with D1A, M4L, V43A, G57R, V83F
B4: NB1113 (antibody, V domains shown)
VH: B1 VH
VL: B1 VL with N31S
notes: Light chain variant (N31S in CDR-L1) of humanized NB1063 (VH1 x VL1); The constant regions are not restated for the humanized antibodies; the parent chimera NB1016 is human IgG4PAA (S228P, F234A, L235A) / human kappa; also called NB11113; N31S light chain variant of NB1063
B5: NB1112 (antibody, V domains shown)
VH: B1 VH
VL: B1 VL with N31D
B6: Humanized VH5 x Humanized VL1 (antibody, V domains shown)
VH: B1 VH with L5V, G10V, L11V, R61A, T78S, A88T, V93L
VL: B1 VL
B7: Humanized VH3 x Humanized VL2 (antibody, V domains shown)
VH: B1 VH with L5V, E46V, S75A
VL: B1 VL with D1A, V43A, V83F, F87Y
B8: NB1115 (antibody, V domains shown)
VH: B1 VH
VL: B1 VL with N31L
B9: Humanized VH4 x Humanized VL2 (antibody, V domains shown)
VH: B1 VH with E1Q, L5V, L11V, G16R, P24A, S49A, V93T
VL: B1 VL with D1A, V43A, V83F, F87Y
B10: NB1114 (antibody, V domains shown)
VH: B1 VH
VL: B1 VL with N31T

Tests used:
[1] = biological target: T1, human FLT3 (FMS-like tyrosine kinase 3) (human, UniProt P36888 27-993); test: cell-based or functional assay
T1 sequence (looked up): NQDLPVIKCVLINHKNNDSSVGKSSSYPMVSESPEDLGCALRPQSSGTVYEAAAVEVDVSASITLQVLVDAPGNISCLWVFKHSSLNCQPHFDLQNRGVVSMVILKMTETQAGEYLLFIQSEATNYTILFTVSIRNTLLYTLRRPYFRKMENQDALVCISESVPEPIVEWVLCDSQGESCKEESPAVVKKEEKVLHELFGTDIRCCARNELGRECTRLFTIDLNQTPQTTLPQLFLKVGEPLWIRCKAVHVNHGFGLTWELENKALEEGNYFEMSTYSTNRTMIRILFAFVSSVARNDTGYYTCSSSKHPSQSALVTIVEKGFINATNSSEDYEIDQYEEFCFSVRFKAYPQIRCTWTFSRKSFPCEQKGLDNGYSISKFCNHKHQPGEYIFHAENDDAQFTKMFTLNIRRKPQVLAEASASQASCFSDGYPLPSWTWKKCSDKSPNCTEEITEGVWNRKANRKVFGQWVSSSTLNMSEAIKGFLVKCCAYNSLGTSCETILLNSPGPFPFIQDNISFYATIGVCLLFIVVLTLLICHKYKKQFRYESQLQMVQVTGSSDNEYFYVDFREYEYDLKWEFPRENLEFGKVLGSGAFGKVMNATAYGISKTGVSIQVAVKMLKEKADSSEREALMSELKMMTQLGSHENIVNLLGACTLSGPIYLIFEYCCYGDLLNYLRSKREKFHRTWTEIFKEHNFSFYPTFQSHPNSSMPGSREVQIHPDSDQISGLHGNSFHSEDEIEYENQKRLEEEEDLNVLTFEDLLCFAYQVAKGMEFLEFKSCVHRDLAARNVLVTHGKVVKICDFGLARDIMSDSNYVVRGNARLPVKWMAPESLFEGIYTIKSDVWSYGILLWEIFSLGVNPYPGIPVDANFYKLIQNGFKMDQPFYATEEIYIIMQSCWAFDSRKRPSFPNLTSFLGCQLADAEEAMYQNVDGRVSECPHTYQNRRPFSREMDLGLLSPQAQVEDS

[2] = biological target: T1, human FLT3 (FMS-like tyrosine kinase 3); test: cell-based or functional assay; remark: listed apart in the source
[3] = biological target: T1, human FLT3 (FMS-like tyrosine kinase 3); test: cell-based or functional assay; remark: listed apart in the source
cynomolgus FLT3 [4] = biological target: T2, cynomolgus FLT3 (cynomolgus, UniProt A0A2K5VQ48 27-993); test: flow cytometry on stably expressing cyno FLT3-STAT5-Luciferase cells, AF488 anti-human IgG (H+L) detection
T2 construct: whole, on cells; also called cyno FLT3; monkey FLT3
T2 sequence: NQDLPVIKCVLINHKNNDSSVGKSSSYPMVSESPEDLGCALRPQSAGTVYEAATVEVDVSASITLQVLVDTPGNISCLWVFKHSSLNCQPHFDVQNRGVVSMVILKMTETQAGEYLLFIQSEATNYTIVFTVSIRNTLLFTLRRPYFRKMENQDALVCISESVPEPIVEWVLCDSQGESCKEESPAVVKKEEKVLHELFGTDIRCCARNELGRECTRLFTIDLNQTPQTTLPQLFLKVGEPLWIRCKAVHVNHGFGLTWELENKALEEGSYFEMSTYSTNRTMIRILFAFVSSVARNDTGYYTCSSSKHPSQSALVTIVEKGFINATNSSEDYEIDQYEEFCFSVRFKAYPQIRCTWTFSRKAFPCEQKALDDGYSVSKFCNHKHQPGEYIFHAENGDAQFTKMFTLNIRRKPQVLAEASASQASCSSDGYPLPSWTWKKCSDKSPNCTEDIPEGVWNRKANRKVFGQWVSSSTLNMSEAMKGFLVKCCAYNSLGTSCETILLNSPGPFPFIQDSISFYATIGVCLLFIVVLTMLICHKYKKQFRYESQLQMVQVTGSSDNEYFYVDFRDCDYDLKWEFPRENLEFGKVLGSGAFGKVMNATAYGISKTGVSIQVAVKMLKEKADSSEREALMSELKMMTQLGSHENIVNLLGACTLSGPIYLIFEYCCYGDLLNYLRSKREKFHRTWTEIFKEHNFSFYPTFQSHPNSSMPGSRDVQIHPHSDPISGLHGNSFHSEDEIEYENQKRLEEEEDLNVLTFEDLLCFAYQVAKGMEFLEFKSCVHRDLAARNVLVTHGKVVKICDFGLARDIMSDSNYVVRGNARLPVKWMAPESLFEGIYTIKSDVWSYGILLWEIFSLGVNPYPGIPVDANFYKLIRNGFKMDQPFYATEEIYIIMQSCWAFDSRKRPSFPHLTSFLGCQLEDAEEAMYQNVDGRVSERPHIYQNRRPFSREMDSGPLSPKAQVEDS
Description: (§1) Since NB1113 binds to human FLT3, but not mouse FLT3, the binding and functional activity of NB1113 was evaluated in both human and cynomolgus (cyno) FLT3-expressing systems. Stably expressing human and cyno FLT3-STAT5-Luciferase cells were used for both binding and functional assays. The binding of NB1113 to human or cyno FLT3 was assessed by flow cytometry using different concentrations of NB1113 in PBS+2% FBS, followed by detection using AF488 anti-human IgG (H+L) secondary antibody.

[5] = biological target: T1, human FLT3 (FMS-like tyrosine kinase 3); test: flow cytometry on stably expressing human FLT3-STAT5-Luciferase cells, AF488 anti-human IgG (H+L) detection
Description: as §1

mouse FLT3 = biological target: T3, mouse FLT3 (mouse, UniProt Q00342 28-544, limits assumed); test: not described
T3 construct: Named only in one sentence; no assay is described
T3 sequence (looked up): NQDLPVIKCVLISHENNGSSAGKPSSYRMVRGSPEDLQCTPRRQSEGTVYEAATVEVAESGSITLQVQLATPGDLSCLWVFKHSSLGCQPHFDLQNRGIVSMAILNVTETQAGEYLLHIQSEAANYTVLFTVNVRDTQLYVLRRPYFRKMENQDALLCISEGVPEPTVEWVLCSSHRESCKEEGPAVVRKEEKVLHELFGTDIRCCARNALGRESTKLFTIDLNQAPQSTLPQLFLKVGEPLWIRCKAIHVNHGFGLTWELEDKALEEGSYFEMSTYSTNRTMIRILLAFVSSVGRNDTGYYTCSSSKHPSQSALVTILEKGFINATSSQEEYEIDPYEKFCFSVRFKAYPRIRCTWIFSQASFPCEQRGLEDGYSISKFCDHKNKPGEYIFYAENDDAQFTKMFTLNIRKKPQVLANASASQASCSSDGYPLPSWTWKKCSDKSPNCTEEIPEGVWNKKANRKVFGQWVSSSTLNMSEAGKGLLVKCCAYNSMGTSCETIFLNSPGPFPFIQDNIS

cynomolgus FLT3 [6] = biological target: T2, cynomolgus FLT3; test: cell-based or functional assay
[7] = biological target: T1, human FLT3 (FMS-like tyrosine kinase 3); test: cell-based or functional assay; remark: listed apart in the source

| Molecule | EC50 in AML5 proliferation assay [2] [nM] | Single dose STAT5-Luc assay, activity relative to NB1016 (chimeric), antibody at 1 nM [3] [%] | also measured |
| --- | --- | --- | --- |
| FLT3 ligand (FLT3L) (from UniProt P49771 27-181) | – | – | EC50 of expansion of HLA-DR+CD1c+ cells from primary human bone marrow, 12 days [1]: 0.023 nM |
| B1 | 0.118 | – | – |
| B2 | – | 53 | – |
| B3 | – | 31 | – |
| B4 | – | – | EC50 (cynomolgus FLT3 [4]): 0.9 nM; EC50 [5]: 1.36 nM; binding result (mouse FLT3): no binding; EC50 in cyno FLT3-STAT5-Luciferase reporter assay (cynomolgus FLT3 [6]): 1.6 nM; EC50 in human FLT3-STAT5-Luciferase reporter assay [7]: 1.1 nM; EC50 of expansion of HLA-DR+CD1c+ cells from primary human bone marrow, 12 days [7]: 0.113 nM |
| B5 | 0.27 | – | – |
| B6 | – | 83 | – |
| B7 | – | 81 | – |
| B8 | 0.135 | – | – |
| B9 | – | 90 | – |
| B10 | 0.201 | – | – |
